Results from patent US12642846B2.
pKd: −log10 of the molar value.

Biological target: ZIKV sE-WT protein (Zika virus)
Experiment: SPR (BIOCORE8000), sE amine-coupled on CM5 chip, antibody as mobile phase

## 2A10G6 antibody
  pKd: 8.04
